This note sets out measurements from article PMC6215540, “Kinetic characterization of acetone monooxygenase from Gordonia sp. strain TY-5” (AMB Express, 2018).

Data set [1] deals with T1, GSTACMO (Gordonia sp. TY-5, UniProt A1IHE6).
T1 construct: gene acmA; full-length with N-terminal GST tag kept (pGEX4T1), E. coli DH5alpha
In words: stopped-flow flavin reduction at […] nm, hyperbolic fit of kobs. The class given is biochemical. The note with it: 50 mM HEPES pH 7.5, 20% glycerol, 25 °C, anaerobic; oxidized enzyme; text b56 prints 121; table labels it ACMO, done on GSTACMO; read-out: Measured values.

The target in data set [2] is T2, ACMO (Gordonia sp. TY-5, UniProt A1IHE6, H325K).
T2 construct: gene acmA; full-length, codon-optimised gene in pGEX4T1, E. coli DH5alpha; N-terminal GST removed with thrombin; calculated mass 59,780 Da
In words: NADPH oxidation at […] nm, competitive inhibition fit. The class given is biochemical. The following applies: read-out: Measured values.

The target of data set [3] is T3, ACMO (Gordonia sp. TY-5, UniProt A1IHE6).
T3 construct: gene acmA; full-length, codon-optimised gene in pGEX4T1, E. coli DH5alpha; N-terminal GST removed with thrombin; calculated mass 59,780 Da
Described as above. The class given is biochemical. The following applies: read-out: Measured values.

The target in data set [4] is T4, GSTACMO (Gordonia sp. TY-5, UniProt A1IHE6, H325K).
T4 construct: gene acmA; full-length with N-terminal GST tag kept (pGEX4T1), E. coli DH5alpha
As to the kind of experiment: flavin absorbance titration at […] nm, quadratic fit. Type of data set: binding.

The target of data set [5] is T1, GSTACMO. As to the kind of experiment: flavin absorbance titration at […] nm, quadratic fit. The class given is binding.
The next data set deals with CC(=O)Cc1ccccc1. As to the kind of experiment: purified protein. Type of data set: biochemical, Gordonia sp. TY-5. The note with it: 100 µM NADPH, air-saturated 50 mM HEPES pH 7.5, 25 °C.
Substrate in data set [6]: CC(C)C(=O)C(C)C
As to the kind of experiment: purified protein. Type of data set: biochemical, Gordonia sp. TY-5. The note with it: 100 µM NADPH, air-saturated 50 mM HEPES pH 7.5, 25 °C.

Substrate in data set [7]: NC(=O)C1=CN([C@@H]2O[C@H](COP(=O)(O)OP(=O)(O)OC[C@H]3O[C@@H](n4cnc5c(N)ncnc54)[C@H](OP(=O)(O)O)[C@@H]3O)[C@@H](O)[C@H]2O)C=CC1
In words: purified protein. Type of data set: biochemical, Gordonia sp. TY-5. The note with it: 200 μM butanone.

Substrate in data set [8]: O=C1CCC1
In words: purified protein. Type of data set: biochemical, Gordonia sp. TY-5. The following applies: 100 µM NADPH, air-saturated 50 mM HEPES pH 7.5, 25 °C.

Substrate in data set [9]: CCCC(C)=O
In words: purified protein. The class given is biochemical, Gordonia sp. TY-5. The note with it: 100 µM NADPH, air-saturated 50 mM HEPES pH 7.5, 25 °C.

Substrate in data set [10]: CCCCCC(C)=O
As to the kind of experiment: purified protein. The class given is biochemical, Gordonia sp. TY-5. The following applies: 100 µM NADPH, air-saturated 50 mM HEPES pH 7.5, 25 °C.

Substrate in data set [11]: CC(C)=O
As to the kind of experiment: purified protein. Type of data set: biochemical, Gordonia sp. TY-5. The note with it: 100 µM NADPH, air-saturated 50 mM HEPES pH 7.5, 25 °C.

Substrate in data set [12]: O=C1CCCC1
As to the kind of experiment: purified protein. The following applies: 100 µM NADPH, air-saturated 50 mM HEPES pH 7.5, 25 °C. Type of data set: biochemical, Gordonia sp. TY-5.

Substrate in data set [13]: CCC(C)=O
As to the kind of experiment: purified protein. The class given is biochemical, Gordonia sp. TY-5. The note with it: 100 µM NADPH.

Substrate in data set [14]: O=C1CC2C=CCC12
As to the kind of experiment: purified protein. Type of data set: biochemical, Gordonia sp. TY-5. The following applies: 100 µM NADPH, air-saturated 50 mM HEPES pH 7.5, 25 °C.

Substrate in data set [15]: O=C1CCCCC1
In words: purified protein. The class given is biochemical, Gordonia sp. TY-5. The following applies: 100 µM NADPH, air-saturated 50 mM HEPES pH 7.5, 25 °C.

Substrate in data set [16]: CC(=O)C(C)C
As to the kind of experiment: purified protein. Type of data set: biochemical, Gordonia sp. TY-5. The note with it: 100 µM NADPH, air-saturated 50 mM HEPES pH 7.5, 25 °C.

[17] abbreviates: air-saturated 50 mM HEPES pH 7.5, 25 °C.
Where [18] appears, read: 50 mM HEPES pH 7.5, 25 °C, GST tag state not told, table row identical to the butanone row, possible duplication.
The mark [19] stands for this setting: 50 mM HEPES pH 7.5, 25 °C, GST tag state not told, table row identical to the NADPH row, possible duplication.

`NC(=O)C1=CN([C@@H]2O[C@H](COP(=O)(O)OP(=O)(O)OC[C@H]3O[C@@H](n4cnc5c(N)ncnc54)[C@H](OP(=O)(O)O)[C@@H]3O)[C@@H](O)[C@H]2O)C=CC1` [NADPH]: the Kd on GSTACMO [1] worked out at 120 ± 14 µM.
For `NC(=O)c1ccc[n+]([C@@H]2O[C@H](COP(=O)(O)OP(=O)(O)OC[C@H]3O[C@@H](n4cnc5c(N)ncnc54)[C@H](OP(=O)(O)O)[C@@H]3O)[C@@H](O)[C@H]2O)c1` [NADP^+], the Ki on ACMO [2] is 27 ± 6 µM; on ACMO [3] it was 166 ± 13 µM. Also, the results for the Kd on GSTACMO [4] and at GSTACMO [5] were 0.5 ± 0.04 µM and 21.1 ± 4.1 µM, respectively.
For ACMO (Gordonia sp. TY-5), in the data set with CC(=O)Cc1ccccc1, the Km is on record as 8.9 ± 1.5 µM, the catalytic constant (kcat) amounted to 1 ± 0.1 s⁻¹ and the kcat/Km was 112000 ± 20000 M⁻¹ s⁻¹.

B1: ACMO (Gordonia sp. TY-5) (protein)
chain: MSTTTLDAAVIGTGVAGLYELHMLREQGLEVRAYDKASGVGGTWYWNRYPGARFDSEAYIYQYLFDEDLYKGWSWSQRFPGQEEIERWLNYVADSLDLRRDISLETEITSAVFDEDRNRWTLTTADGDTIDAQFLITCCGMLSAPMKDLFPGQSDFGGQLVHTARWPKEGIDFAGKRVGVIGNGATGIQVIQSIAADVDELKVFIRTPQYALPMKNPSYGPDEVAWYKSRFGELKDTLPHTFTGFEYDFTDAWEDLTPEQRRARLEDDYENGSLKLWLASFAEIFSDEQVSEEVSEFVREKMRARLVDPELCDLLIPSDYGFGTHRVPLETNYLEVYHRDNVTAVLVRDNPITRIRENGIELADGTVHELDVIIMATGFDAGTGALTRIDIRGRDGRTLADDWSRDIRTTMGLMVHGYPNMLTTAVPLAPSAALCNMTTCLQQQTEWISEAIRHLRATGKTVIEPTAEGEEAWVAHHDELADANLISKTNSWYVGSNVPGKPRRVLSYVGGVGAYRDATLEAAAAGYKGFALS
notes: full-length, codon-optimised gene in pGEX4T1, E. coli DH5alpha; N-terminal GST removed with thrombin; calculated mass 59,780 Da
B1: the Michaelis constant (Km) in the data set “purified protein [6]” amounted to 1500 ± 220 µM; in “purified protein [7]” (setting [17]) it was 6.7 ± 0.8 µM; in “purified protein [8]”, 1.5 ± 0.2 µM; in the data set “purified protein [9]”, 0.37 ± 0.06 µM; in the data set “purified protein [10]”, 1.5 ± 0.1 µM; in the data set “purified protein [11]”, 170 ± 11 µM. Further, the Km in “purified protein [12]” was 120 ± 11 µM; in the data set “purified protein [13]” (setting [17]), 0.34 ± 0.03 µM; in the data set “purified protein [14]” it was 6.7 ± 1.3 µM; in “purified protein [15]” it was 2400 ± 400 µM; in “purified protein [16]” it was 4.4 ± 0.5 µM. Besides, the turnover number (kcat) turned out to be 1.5 ± 0.1 s⁻¹ in “purified protein [6]”; 2 ± 0.1 s⁻¹ in “purified protein [7]” (setting [17]); 2 ± 0.1 s⁻¹ in the data set “purified protein [8]”; 1.9 ± 0.1 s⁻¹ in the data set “purified protein [9]”; 3.9 ± 0.1 s⁻¹ in “purified protein [10]”; 1.4 ± 0.2 s⁻¹ in “purified protein [11]”. Moreover, the kcat in “purified protein [12]” worked out at 4.3 ± 0.1 s⁻¹; in the data set “purified protein [13]” (setting [17]), 2.1 ± 0.1 s⁻¹; in “purified protein [14]” it was 1.5 ± 0.1 s⁻¹; in “purified protein [15]”, 3.6 ± 0.2 s⁻¹; in “purified protein [16]”, 2.2 ± 0.1 s⁻¹. Moreover, the kcat/Km in the data set “purified protein [6]” came to 1000 ± 150 M⁻¹ s⁻¹; in the data set “purified protein [7]” (setting [17]), 300000 ± 36000 M⁻¹ s⁻¹; in the data set “purified protein [8]” it was 1.4e+06 ± 190000 M⁻¹ s⁻¹; in the data set “purified protein [9]”, 4.8e+06 ± 760000 M⁻¹ s⁻¹; in the data set “purified protein [10]”, 2.6e+06 ± 130000 M⁻¹ s⁻¹; in the data set “purified protein [11]” it was 8500 ± 590 M⁻¹ s⁻¹. Moreover, the kcat/Km in the data set “purified protein [12]” is 35000 ± 3200 M⁻¹ s⁻¹; in the data set “purified protein [13]” (setting [17]) it was 6e+06 ± 550000 M⁻¹ s⁻¹; in the data set “purified protein [14]”, 220000 ± 45000 M⁻¹ s⁻¹; in the data set “purified protein [15]”, 1500 ± 300 M⁻¹ s⁻¹; in “purified protein [16]”, 510000 ± 55000 M⁻¹ s⁻¹.

B2: GSTACMO (Gordonia sp. TY-5) (protein)
chain: MSTTTLDAAVIGTGVAGLYELHMLREQGLEVRAYDKASGVGGTWYWNRYPGARFDSEAYIYQYLFDEDLYKGWSWSQRFPGQEEIERWLNYVADSLDLRRDISLETEITSAVFDEDRNRWTLTTADGDTIDAQFLITCCGMLSAPMKDLFPGQSDFGGQLVHTARWPKEGIDFAGKRVGVIGNGATGIQVIQSIAADVDELKVFIRTPQYALPMKNPSYGPDEVAWYKSRFGELKDTLPHTFTGFEYDFTDAWEDLTPEQRRARLEDDYENGSLKLWLASFAEIFSDEQVSEEVSEFVREKMRARLVDPELCDLLIPSDYGFGTHRVPLETNYLEVYHRDNVTAVLVRDNPITRIRENGIELADGTVHELDVIIMATGFDAGTGALTRIDIRGRDGRTLADDWSRDIRTTMGLMVHGYPNMLTTAVPLAPSAALCNMTTCLQQQTEWISEAIRHLRATGKTVIEPTAEGEEAWVAHHDELADANLISKTNSWYVGSNVPGKPRRVLSYVGGVGAYRDATLEAAAAGYKGFALS
notes: full-length with N-terminal GST tag kept (pGEX4T1), E. coli DH5alpha
Consider B2, for which, in “purified protein [15]”, the Km was found to be 2300 ± 380 µM, the kcat stood at 2.8 ± 0.1 s⁻¹ and the specificity constant (kcat/Km) was 1200 ± 200 M⁻¹ s⁻¹.

B3: ACMO (Gordonia sp. TY-5; H325K) (protein)
chain: MSTTTLDAAVIGTGVAGLYELHMLREQGLEVRAYDKASGVGGTWYWNRYPGARFDSEAYIYQYLFDEDLYKGWSWSQRFPGQEEIERWLNYVADSLDLRRDISLETEITSAVFDEDRNRWTLTTADGDTIDAQFLITCCGMLSAPMKDLFPGQSDFGGQLVHTARWPKEGIDFAGKRVGVIGNGATGIQVIQSIAADVDELKVFIRTPQYALPMKNPSYGPDEVAWYKSRFGELKDTLPHTFTGFEYDFTDAWEDLTPEQRRARLEDDYENGSLKLWLASFAEIFSDEQVSEEVSEFVREKMRARLVDPELCDLLIPSDYGFGTKRVPLETNYLEVYHRDNVTAVLVRDNPITRIRENGIELADGTVHELDVIIMATGFDAGTGALTRIDIRGRDGRTLADDWSRDIRTTMGLMVHGYPNMLTTAVPLAPSAALCNMTTCLQQQTEWISEAIRHLRATGKTVIEPTAEGEEAWVAHHDELADANLISKTNSWYVGSNVPGKPRRVLSYVGGVGAYRDATLEAAAAGYKGFALS
notes: as for B1
As to B3, in “purified protein [7]” (setting [18]), the Km is given as 0.48 ± 0.05 µM, the turnover number (kcat) came out at 1.6 ± 0.1 s⁻¹ and the catalytic efficiency (kcat/Km) was 3.25e+06 ± 320000 M⁻¹ s⁻¹. For the same molecule, in “purified protein [13]” (setting [19]), the Michaelis-Menten constant (Km) is 0.48 ± 0.05 µM, the kcat turned out to be 1.6 ± 0.1 s⁻¹ and the kcat/Km is 3.25e+06 ± 320000 M⁻¹ s⁻¹.

As a reminder, the Km is the substrate concentration at which the rate is half of its maximum. What is called kcat is the number of substrate molecules converted per active site and unit of time at saturation. Usually kcat/Km stands for the turnover number divided by the Michaelis constant.
